The record followed here is patent US11866467.

Experiment [1] addresses TGF-β receptor (type I and II receptors) on mouse cells (MFB-F11 fibroblasts, mouse splenocytes, mouse CD4+ T cells) (mouse) (UniProt Q64729). Put plainly: cell-based or functional assay.
Experiment [2] concerns the target TGF-β receptor on human peripheral blood CD4+ T cells (human) (UniProt P36897). Put plainly: cell-based or functional assay.
Sequence of UniProt P36897 (P36897 34-503, chain 1 of 2): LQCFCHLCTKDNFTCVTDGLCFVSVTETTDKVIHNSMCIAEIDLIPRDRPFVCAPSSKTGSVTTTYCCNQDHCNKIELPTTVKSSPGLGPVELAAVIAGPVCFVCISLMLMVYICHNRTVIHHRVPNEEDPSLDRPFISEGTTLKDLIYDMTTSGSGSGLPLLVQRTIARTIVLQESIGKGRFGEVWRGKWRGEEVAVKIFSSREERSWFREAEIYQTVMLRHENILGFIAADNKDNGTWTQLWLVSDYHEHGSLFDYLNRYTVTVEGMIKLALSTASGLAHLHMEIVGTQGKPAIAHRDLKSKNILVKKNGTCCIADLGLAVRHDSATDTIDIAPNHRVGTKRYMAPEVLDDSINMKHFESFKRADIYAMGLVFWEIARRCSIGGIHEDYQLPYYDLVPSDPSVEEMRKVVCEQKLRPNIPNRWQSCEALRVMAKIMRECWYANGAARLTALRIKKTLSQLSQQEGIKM
Sequence of UniProt P36897 (P37173 23-567, chain 2 of 2, further chain): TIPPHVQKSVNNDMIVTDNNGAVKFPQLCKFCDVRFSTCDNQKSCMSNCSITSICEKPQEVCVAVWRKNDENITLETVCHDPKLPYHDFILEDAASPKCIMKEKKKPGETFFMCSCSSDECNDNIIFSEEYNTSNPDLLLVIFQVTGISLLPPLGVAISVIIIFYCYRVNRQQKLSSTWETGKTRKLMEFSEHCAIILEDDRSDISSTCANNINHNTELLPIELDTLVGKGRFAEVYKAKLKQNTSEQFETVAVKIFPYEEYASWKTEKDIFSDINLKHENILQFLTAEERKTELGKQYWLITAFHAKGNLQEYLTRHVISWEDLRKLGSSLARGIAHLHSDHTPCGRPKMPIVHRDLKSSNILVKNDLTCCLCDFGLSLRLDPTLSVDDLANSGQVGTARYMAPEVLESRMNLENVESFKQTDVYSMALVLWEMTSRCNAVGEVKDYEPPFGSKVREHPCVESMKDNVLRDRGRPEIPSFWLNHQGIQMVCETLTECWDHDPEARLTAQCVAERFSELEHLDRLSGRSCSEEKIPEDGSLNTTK

Sequence of UniProt Q64729 (Q64729 30-503, chain 1 of 2): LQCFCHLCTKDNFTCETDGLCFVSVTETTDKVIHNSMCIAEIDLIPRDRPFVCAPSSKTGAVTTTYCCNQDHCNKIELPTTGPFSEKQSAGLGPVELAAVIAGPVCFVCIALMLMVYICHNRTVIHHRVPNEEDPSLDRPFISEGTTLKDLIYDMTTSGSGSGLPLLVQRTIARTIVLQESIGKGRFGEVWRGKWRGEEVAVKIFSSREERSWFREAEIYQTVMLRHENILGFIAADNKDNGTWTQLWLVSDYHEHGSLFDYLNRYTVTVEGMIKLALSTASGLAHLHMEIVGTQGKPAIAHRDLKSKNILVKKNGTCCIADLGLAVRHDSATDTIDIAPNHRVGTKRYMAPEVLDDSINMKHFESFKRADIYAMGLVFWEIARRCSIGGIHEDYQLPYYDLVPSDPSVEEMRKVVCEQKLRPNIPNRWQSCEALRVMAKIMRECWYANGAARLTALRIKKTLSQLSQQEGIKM
Sequence of UniProt Q64729 (Q62312 24-567, chain 2 of 2, further chain): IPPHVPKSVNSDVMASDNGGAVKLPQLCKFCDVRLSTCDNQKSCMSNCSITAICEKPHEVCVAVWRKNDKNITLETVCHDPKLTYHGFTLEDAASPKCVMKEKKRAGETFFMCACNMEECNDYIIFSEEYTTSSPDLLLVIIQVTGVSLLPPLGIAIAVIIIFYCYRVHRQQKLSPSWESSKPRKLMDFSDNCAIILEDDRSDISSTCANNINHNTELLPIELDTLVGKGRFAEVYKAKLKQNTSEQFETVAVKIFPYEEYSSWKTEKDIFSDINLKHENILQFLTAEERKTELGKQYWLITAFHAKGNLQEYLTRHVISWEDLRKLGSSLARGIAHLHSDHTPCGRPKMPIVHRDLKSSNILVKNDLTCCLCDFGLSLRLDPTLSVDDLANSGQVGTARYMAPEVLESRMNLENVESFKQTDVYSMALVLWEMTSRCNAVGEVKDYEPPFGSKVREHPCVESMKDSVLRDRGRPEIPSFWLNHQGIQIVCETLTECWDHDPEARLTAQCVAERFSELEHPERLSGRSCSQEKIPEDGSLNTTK

In experiment [1], “recombinant human TGF-β1 (R&D Systems) (from UniProt P01137 279-390) (ligand)” registered a Foxp3+ Treg conversion, % of all mouse CD4+ cells at 10 ng/ml (0.78 nM monomeric hTGF-β1) of 79.7% and an MFB-F11 reporter cells, alkaline phosphatase, OD405 at 100 ng/ml (maximum signal) of 1.48 OD405.

With “H. polygyrus TGF-β Mimic (TGM), purified recombinant protein with hexa-histidine C-terminal tag (ligand)”, in experiment [1], the Foxp3+ Treg conversion, % of all mouse CD4+ cells at 38.1 ng/ml (0.78 nM) was 90.7% and the MFB-F11 reporter cells, alkaline phosphatase, OD405 at 100 ng/ml (maximum signal) turned out to be 2.46 OD405. Moreover, the CD4+CD25+Foxp3+ Treg among human CD4+ T cells, maximum in experiment [2] worked out at 84%.
